Laboratory results published in patent US20220064286A1 (Genentech, published 2022).
Positions count from the first letter of the chain named. Numbers in names are those of the source.

Legend:
[1] = target: T1, hTIGIT mutant Y113A (human, UniProt Q495A1); assay: SPR (BIACORE), N=2
T1 sequence (TIGIT, looked up): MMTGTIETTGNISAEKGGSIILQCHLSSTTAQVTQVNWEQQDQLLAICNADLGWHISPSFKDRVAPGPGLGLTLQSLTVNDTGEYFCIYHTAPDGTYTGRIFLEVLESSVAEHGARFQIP

[2] = target: T2, human TIGIT protein (human, UniProt Q495A1 22-141, limits assumed); assay: SPR (BIACORE), N=2
T2 construct: Recombinant protein (Genentech) used in ELISA screening and as SPR analyte; also called TIGIT antigen
T2 sequence: T1 sequence (TIGIT, looked up) with A92Y

[3] = target: T3, hTIGIT mutant Q53A (human, UniProt Q495A1); assay: SPR (BIACORE), N=2
T3 sequence (TIGIT, looked up): T1 sequence (TIGIT, looked up) with Q32A, A92Y

[4] = target: T4, hTIGIT mutant L73A (human, UniProt Q495A1); assay: SPR (BIACORE), N=2
T4 sequence (TIGIT, looked up): T1 sequence (TIGIT, looked up) with L52A, A92Y

[5] = target: T1, hTIGIT mutant Y113A; assay: SPR (BIACORE) KD normalized to WT, N=2
[6] = target: T2, human TIGIT protein; assay: SPR (BIACORE) KD normalized to WT, N=2
[7] = target: T3, hTIGIT mutant Q53A; assay: SPR (BIACORE) KD normalized to WT, N=2
[8] = target: T4, hTIGIT mutant L73A; assay: SPR (BIACORE) KD normalized to WT, N=2
[9] = target: T2, human TIGIT protein; assay: SPR, captured mAb
Excerpt: (§1) To prevent unwanted pyroglutamate formation for clones 4.1A4, 4.1 D3, and 7.4A3 (also referred to as 1A4, 1 D3, and 4A3, respectively) and to resolve the issue of unpaired cysteine residues for clones 4.1A4 and 7.4A3, the following optimized anti-TIGIT antibody variants were generated: 4.1A4.C96S.Q1E, 4.1A4.C96Y.Q1E, 4.1 D3.Q1E, 7.4A3.C96S.Q1E, and 7.4A3.C96Y.Q1E (also referred to as 1A4.C96S.Q1E, 1A4.C96Y.Q1E, 1 D3.Q1E, 4A3.C96S.Q1E, and 4A3.C96Y.Q1E, respectively). As described below in Table 2, the affinities of these five optimized variants for human and cynomolgus monkey (cyno) TIGIT were then determined by Surface Plasmon Resonance (SRP) (BIACORE™ analysis) and compared to that of their respective parental clones.
(§2) Briefly, a series S CM5 biosensor chip was activated with N-ethyl-N′-(3-dimethylaminopropyl)-carbodiimide hydrochloride (EDC) and N-hydroxysuccinimide (NHS) reagents according to the supplier's (GE Healthcare Biosciences, Piscataway, N.J.) instructions, and a human antibody capture kit was applied to couple goat anti-human Fc IgGs in order to achieve approximately 10,000 response units (RU) on each flow cell, followed by blocking un-reacted groups with 1M ethanolamine.
(§3) (flow rate: 30 μl/min) with no regeneration between injections. The sensorgrams were recorded and evaluated by BIAcore™ T200 Evaluation Software (version 2.0) after subtraction of reference cell signal. Association rates (kₒₙ) and dissociation rates (koff) were calculated using a simple one-to-one Langmuir binding model. The equilibrium dissociation constant (KD) was calculated as the ratio koff/kₒₙ.

[10] = target: T5, cynomolgus monkey (cyno) TIGIT protein (cynomolgus monkey, UniProt A0A7N9I9V4 89-209); assay: SPR, captured mAb
T5 sequence (A0A7N9I9V4 entry or part of it): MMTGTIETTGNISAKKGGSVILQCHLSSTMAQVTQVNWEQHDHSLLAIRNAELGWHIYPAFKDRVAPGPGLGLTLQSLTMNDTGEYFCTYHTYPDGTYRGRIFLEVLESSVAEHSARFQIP
Excerpt: as §1, §2, §3

[11] = target: T2, human TIGIT protein; assay: SPR, monovalent affinity
[12] = target: T5, cynomolgus monkey (cyno) TIGIT protein; assay: SPR, monovalent affinity
[13] = target: T6, full-length human TIGIT on CHO cells (human, UniProt Q495A1 22-244); assay: FACS, PVR-Fc on CHO-TIGIT cells; competitor PVR-Fc
T6 construct: also called CHO-hTIGIT; hu TIGIT
T6 sequence: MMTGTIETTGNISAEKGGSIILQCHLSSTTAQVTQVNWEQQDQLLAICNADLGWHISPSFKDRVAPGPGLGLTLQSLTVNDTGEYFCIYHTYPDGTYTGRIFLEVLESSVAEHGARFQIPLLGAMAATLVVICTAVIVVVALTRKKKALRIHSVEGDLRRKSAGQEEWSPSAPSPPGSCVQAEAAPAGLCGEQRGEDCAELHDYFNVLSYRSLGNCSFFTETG
Protocol: These studies were further validated in CHO-TIGIT PVR blocking experiments in which TIGIT-expressing CHO cells were incubated with labeled PVR-Fc fusion protein in the presence of anti-TIGIT antibody or an human IgG1 control (FIG. 4A).

B1: 4.1D3 (antibody, V domains shown)
VH: QVQLQQSGPGLVKPSQTLSLTCAISGDSVSSNSAAWNWIRQSPSRGLEWLGKTYYRFKWYSDYAVSVKGRITINPDTSKNQFSLQLNSVTPEDTAVFYCTRESTTYDLLAGPFDYWGQGTLVTVSS
VL: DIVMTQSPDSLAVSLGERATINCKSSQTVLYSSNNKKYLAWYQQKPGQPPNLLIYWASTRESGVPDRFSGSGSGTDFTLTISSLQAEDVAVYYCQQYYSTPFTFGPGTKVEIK
notes: OMT rat-derived human antibody; also called 4.1D3.Q1
- Kd [1]: 2.8 nM
- Kd [2]: 0.5 nM
- Kd [3]: 0.8 nM
- Kd [4]: 1.3 nM
- Binding affinity drop vs. WT [5]: 5.6 fold
- Binding affinity drop vs. WT [6]: 1 fold
- Binding affinity drop vs. WT [7]: 1.6 fold
- Binding affinity drop vs. WT [8]: 2.6 fold
- Kd [9]: 0.43 nM
- koff [9]: 0.00164 s⁻¹
- kon [9]: 3.84e+06 M⁻¹ s⁻¹
- Kd [10]: 3.33 nM
- koff [10]: 0.00207 s⁻¹
- kon [10]: 621000 M⁻¹ s⁻¹

B2: 4.1D3.Q1E (antibody, V domains shown)
VH: B1 VH with Q1E
VL: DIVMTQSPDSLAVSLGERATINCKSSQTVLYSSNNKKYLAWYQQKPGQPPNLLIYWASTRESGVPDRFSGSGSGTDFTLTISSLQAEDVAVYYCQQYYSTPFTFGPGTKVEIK
- Kd [11]: 0.56 nM
- Kd [12]: 3.2 nM
- IC50 [13]: 0.29 nM
- Kd [9]: 0.56 nM
- koff [9]: 0.00097 s⁻¹
- kon [9]: 1.72e+06 M⁻¹ s⁻¹
- Kd [10]: 3.22 nM
- koff [10]: 0.00154 s⁻¹
- kon [10]: 478000 M⁻¹ s⁻¹

B3: 7.4A3.C96S.Q1E (antibody, V domains shown)
VH: EVQLVQSGSDLKKPGASVRVSCKASGYTFTSYPMNWVRQAPGHGLEWMGWINTNTGNPTYVQGFTGRFVFSLDTSVNTAYLQISSLKAEDTAVYFCARTGGHTYDSYAFDVWGQGTMVTVSS
VL: DIQLTQSPTFLSASVGDRVTITCRASQVISSSLAWYQQNPGKAPKLLIYAASTLQSGVPSRFSGSGSGTEFTLTISSLQPEDFVTYYCQHLHGYPSNFGQGTKVEIK
notes: also called 7.4A3.Q1E.C96S
- Kd [2]: 1.8 nM
- Kd [11]: 2.97 nM
- Kd [12]: 2.01 nM
- IC50 [13]: 0.38 nM
- Binding affinity drop vs. WT [6]: 1 fold
- Kd [9]: 2.97 nM
- koff [9]: 0.000856 s⁻¹
- kon [9]: 288000 M⁻¹ s⁻¹
- Kd [10]: 2.01 nM
- koff [10]: 0.000556 s⁻¹
- kon [10]: 276000 M⁻¹ s⁻¹

B4: 10A7 (antibody, V domains shown)
VH: EVQLVESGGGLTQPGKSLKLSCEASGFTFSSFTMHWVRQSPGKGLEWVAFIRSGSGIVFYADAVRGRFTISRDNAKNLLFLQMNDLKSEDTAMYYCARRPLGHNTFDSWGQGTLVTVSS
VL: DIVMTQSPSSLAVSPGEKVTMTCKSSQSLYYSGVKENLLAWYQQKPGQSPKLLIYYASIRFTGVPDRFTGSGSGTDYTLTITSVQAEDMGQYFCQQGINNPLTFGDGTKLEIKR
- Kd [1]: 55.5 nM
- Kd [3]: 32 nM
- Kd [4]: > 500 nM
- Binding affinity drop vs. WT [5]: 1.2 fold
- Binding affinity drop vs. WT [7]: 0.7 fold
- Binding affinity drop vs. WT [8]: > 11 fold
